Reference: patent US20260210939A1, “MODIFIED OLFACTORY RECEPTORS” (GIVAUDAN SA, priority 2022, published 2026)
pEC50: −log10 of the molar value.

Columns and labels:
OR5B12 = target: T1, OR5B12 (Homo sapiens, UniProt Q96R08, C141R); test: CRE-luciferase assay, HEK293T cells expressing OR5B12 (wild-type / modified C-terminus); format: cell-based; conditions: for Fold-improvement potency / Fold-improvement threshold: changed C-term. vs wild-type; for % of the activation by the optimized sequence RNKEVKDALKRLLKRKCC: OR5B12 variant
T1 construct: Improved functional expression of modified OR-genes containing the truncated, optimized C-terminus; expressed in transfected cells; host or cells: HEK293T stably expressing human RTP1S(V227I) and RTP2(L220R)
T1 sequence (Q96R08 with tags, fused parts or gaps C141R): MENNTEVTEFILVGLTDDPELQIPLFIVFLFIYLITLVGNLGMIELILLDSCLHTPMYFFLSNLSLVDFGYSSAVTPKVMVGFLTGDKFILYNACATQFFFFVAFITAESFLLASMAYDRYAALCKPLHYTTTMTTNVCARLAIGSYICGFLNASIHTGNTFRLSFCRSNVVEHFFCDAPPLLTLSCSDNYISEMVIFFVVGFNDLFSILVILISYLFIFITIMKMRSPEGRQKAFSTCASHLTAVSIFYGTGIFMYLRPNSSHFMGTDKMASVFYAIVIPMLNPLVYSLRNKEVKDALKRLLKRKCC

OR7C1 = target: T2, OR7C1 (Homo sapiens, UniProt O76099, D296E/G302K/M297V/R299D/T295K/V126I); test: CRE-luciferase assay, HEK293T cells expressing OR7C1 (wild-type / modified C-terminus); format: cell-based; conditions: OR7C1 variant, 1 μM Ambermax
T2 construct: Improved functional expression of modified OR-genes containing the truncated, optimized C-terminus; expressed in transfected cells; host or cells: HEK293T stably expressing human RTP1S(V227I) and RTP2(L220R)
T2 sequence (O76099 with tags, fused parts or gaps V126I/T295K/D296E/M297V/R299D/G302K): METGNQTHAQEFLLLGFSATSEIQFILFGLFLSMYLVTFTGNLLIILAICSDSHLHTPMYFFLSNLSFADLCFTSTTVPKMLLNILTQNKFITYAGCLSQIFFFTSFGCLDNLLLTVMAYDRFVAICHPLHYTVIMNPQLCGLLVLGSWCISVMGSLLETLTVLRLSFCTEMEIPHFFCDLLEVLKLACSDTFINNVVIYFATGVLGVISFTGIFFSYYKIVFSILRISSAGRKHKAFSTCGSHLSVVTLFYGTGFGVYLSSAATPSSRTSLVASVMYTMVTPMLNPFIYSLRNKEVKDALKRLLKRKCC
Description: To test for possible variants of the sequence […]CC (SEQ ID NO: 86) leading to similar improved functional expression, different point mutations were introduced into the first 16 amino acids of this sequence (corresponding to […], SEQ ID NO: 10) and the variants were fused after the TM7 with OR7C1. […] The test concentrations were selected to fall into the range of partial activity of the wild-type sequence.

Compound	% of the activation by the optimized sequence RNKEVKDALKRLLKRKCC (OR5B12; 31 μM Hedione HC) [%]	% of the activation by the optimized sequence RNKEVKDALKRLLKRKCC (OR5B12; 62.5 μM Hedione HC) [%]	% of the activation by the optimized sequence RNKEVKDALKRLLKRKCC (OR7C1) [%]	further results
CCCCCC1C(=O)CCC1CC(=O)OC (racemic) [Hedione HC, reference compound]	–	–	–	Comments on efficacy (OR5B12): 4-fold lower; Detection threshold; concentration for 2-fold induction (OR5B12; changed C-term. SEQ ID NO: 86): 8.8 µM; pEC50 (OR5B12; changed C-term. SEQ ID NO: 86): 4.74; Fold-improvement potency (OR5B12): 3.8; Fold-improvement threshold (OR5B12): 11; Detection threshold; concentration for 2-fold induction (OR5B12; wild-type): 96 µM; pEC50 (OR5B12; wild-type): 4.16
CCCCCC1C(=O)CCC1CC(=O)OC (stereo not drawn) [Hedione, reference compound]	–	–	–	Comments on efficacy (OR5B12): type only 1.75-; Detection threshold; concentration for 2-fold induction (OR5B12; changed C-term. SEQ ID NO: 86): 29 µM; pEC50 (OR5B12; changed C-term. SEQ ID NO: 86): 4.23; Fold-improvement potency (OR5B12): >5; Fold-improvement threshold (OR5B12): >9; Detection threshold; concentration for 2-fold induction (OR5B12; wild-type): (>>250) μM; pEC50 (OR5B12; wild-type): < 3.60
SEQ ID NO: 134 (RNKEVKDALKRLLKRKCCC; source 1..19: note = C-terminal domain sequence)	168.91	121.37	–	–
SEQ ID NO: 135 (RNKEVKDALKRLLKRKCCF; source 1..19: note = C-terminal domain sequence)	207.32	127.22	–	–
SEQ ID NO: 136 (RNKEVKDALKRLLKRKCCL; source 1..19: note = C-terminal domain sequence)	533.84	189.64	–	–
SEQ ID NO: 137 (RNKEVKDALKRLLKRKCCM; source 1..19: note = C-terminal domain sequence)	177.47	182.76	–	–
SEQ ID NO: 138 (RNKEVKDALKRLLKRKCCS; source 1..19: note = C-terminal domain sequence)	176.99	75.63	–	–
SEQ ID NO: 139 (RNKEVKDALKRLLKRKCCP; source 1..19: note = C-terminal domain sequence)	98.68	98.17	–	–
SEQ ID NO: 140 (RNKEVKDALKRLLKRKCCA; source 1..19: note = C-terminal domain sequence)	230.04	143.71	–	–
SEQ ID NO: 141 (RNKEVKDALKRLLKRKCCY; source 1..19: note = C-terminal domain sequence)	298.48	274.09	–	–
SEQ ID NO: 142 (RNKEVKDALKRLLKRKCCH; source 1..19: note = C-terminal domain sequence)	142.62	129.19	–	–
SEQ ID NO: 143 (RNKEVKDALKRLLKRKCCN; source 1..19: note = C-terminal domain sequence)	137.13	91.94	–	–
SEQ ID NO: 144 (RNKEVKDALKRLLKRKCCD; source 1..19: note = C-terminal domain sequence)	86.54	56.54	–	–
SEQ ID NO: 145 (RNKEVKDALKRLLKRKCCK; source 1..19: note = C-terminal domain sequence)	280.71	237.30	–	–
SEQ ID NO: 195 (RNKEVKDALKRLRKRKCC; source 1..18: note = C-terminal domain sequence)	–	–	14.1	–
SEQ ID NO: 196 (RNKEVKDALKRLKKRKCC; source 1..18: note = C-terminal domain sequence)	–	–	5.7	–
SEQ ID NO: 197 (RNKEVKDALKRLLERKCC; source 1..18: note = C-terminal domain sequence)	–	–	5.6	–
SEQ ID NO: 321 (RNKEVKCALKRLLKRKCC; source 1..18: note = C-terminal domain sequence)	–	–	46.0	–

Compound	% of the activation by the optimized sequence RNKEVKDALKRLLKRKCC (OR5B12; 31 μM Hedione HC) [%]	% of the activation by the optimized sequence RNKEVKDALKRLLKRKCC (OR5B12; 62.5 μM Hedione HC) [%]	% of the activation by the optimized sequence RNKEVKDALKRLLKRKCC (OR7C1) [%]	further results
SEQ ID NO: 322 (RNKEVKFALKRLLKRKCC; source 1..18: note = C-terminal domain sequence)	–	–	41.1	–
SEQ ID NO: 323 (RNKEVKHALKRLLKRKCC; source 1..18: note = C-terminal domain sequence)	–	–	65.6	–
SEQ ID NO: 324 (RNKEVKIALKRLLKRKCC; source 1..18: note = C-terminal domain sequence)	–	–	81.0	–
SEQ ID NO: 325 (RNKEVKLALKRLLKRKCC; source 1..18: note = C-terminal domain sequence)	–	–	108.0	–
SEQ ID NO: 326 (RNKEVKMALKRLLKRKCC; source 1..18: note = C-terminal domain sequence)	–	–	107.6	–
SEQ ID NO: 327 (RNKEVKPALKRLLKRKCC; source 1..18: note = C-terminal domain sequence)	–	–	−3.7	–
SEQ ID NO: 328 (RNKEVKSALKRLLKRKCC; source 1..18: note = C-terminal domain sequence)	–	–	99.1	–
SEQ ID NO: 329 (RNKEVKTALKRLLKRKCC; source 1..18: note = C-terminal domain sequence)	–	–	129.9	–
SEQ ID NO: 330 (RNKEVKWALKRLLKRKCC; source 1..18: note = C-terminal domain sequence)	–	–	17.4	–
SEQ ID NO: 331 (RNKEVKYALKRLLKRKCC; source 1..18: note = C-terminal domain sequence)	–	–	59.4	–
Ser Gln	–	–	1.0	–
Ser Ile	–	–	225.3	–
Tyr Arg	–	–	127.8	–
Tyr Leu	–	–	95.4	–
Tyr Pro	–	–	221.7	–
Tyr Tyr	–	–	108.3	–
Val Met	–	–	1.3	–
Val Ser	–	–	4.3	–
